Non-standard residues stand in square brackets, D forms with d. No end group written: not given here. *: point of attachment. Biotin = O=C1N[C@H]2[C@H](CS[C@H]2CCCCC(=O)*)N1; NMePro = CN1CCC[C@H]1C(=O)*; Ahx = NCCCCCC(=O)O
B1: biotin-ahx-pSer68-PLMcyt (peptide)
peptide: {Biotin-Ahx}-KRCRCKFNQQQRTGEPDEEEGTFRSSIRRLSSRRR
modifications: also: phosphoserine at Ser68 (numbering not mappable from notes)
notes: cytoplasmic part of phospholemman (PLM, FXYD1), printed as [residues removed]; Immobilised on SA chips (SPR) and used as overlay probe on the peptide arrays; also called biotin-pSer68-PLM; biotin-pSer68-PLMcyt; source: synthetic peptide (Genscript, >80% purity)

Experiments:
pSer68-PLMcyt = target: T1, pSer68-PLMcyt (Mus musculus, UniProt Q9Z239); assay: Peptide array overlay with biotin-pSer68-PLM; format: binding; conditions: membrane-synthesized peptides overlaid with 5 μM biotin-pSer68-PLM, anti-biotin-HRP
T1 construct: purchased Genscript; host or cells: synthetic peptide
T1 sequence (Q9Z239 58-92 limits assumed): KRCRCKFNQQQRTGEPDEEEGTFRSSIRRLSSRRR
From the text: Peptides on cellulose membranes were synthesized using a Multipep automated peptide synthesizer (INTAVIS Bioanalytical Instruments AG, Koeln, Germany) ([Frank, 1992], [Frank, 2002]). Peptides in solution were synthesized (listed below) at >80% purity by Genscript (Corporation, Piscataway, NJ, United States). For some of the peptides a cell-permeable TAT ([…]) or a biotin tag was included at either N- or C-terminus with or without an ahx-linker in between to avoid any potential steric hindrance.
Peptide array membranes were blocked in 1% casein for 2–4 h and overlaid with 5 μM of biotinylated pSer68-PLM peptide in 1% casein overnight at 4°C. The membranes were then washed three times for 10 min in TBS-T before incubation with anti-biotin-horseradish peroxidase (HRP) for 1 h (see Antibodies and Recombinant Protein). Peptide-bound spots were detected as described in the immunoblotting section.

biotin-ahx-pSer68-PLMcyt [1] = target: B1; assay: SPR; Biacore X100; biotinylated pSer68-PLMcyt or PLMcyt immobilised on SA chip (~50-200 RU); His-TF-NCX1cyt dialysed into running buffer injected at a range of concentrations (single cycles), 30 or 100 ul/min, 180 s, dissociation 600 s; 1:1 (Langmuir) fit
biotin-ahx-PLMcyt = assay: as above
[2] = system: adult mouse cardiomyocytes; assay: Ca2+ transients and SR Ca2+ load in isolated adult cardiomyocytes; format: cell-based; conditions: 1 μM, vs scrambled control
Procedure: (§1) 8 weeks old C57BL6/J mice were randomized to SHAM or an aortic banding (AB) operation using o-rings (ORAB) as previously described ([Melleby et al., 2018]). Mice were anesthetized in a combination of 5% isoflurane and 95% O2, before endotracheal intubation and ventilation using a MiniVent rodent ventilator (Harvard Apparatus, United States). Left sided hemothoracotomy in the third intercostal space was performed, before dissection and placement of the o-ring around the ascending aorta. Animals were allowed to recover, and post-operative analgesia was achieved by injections of buprenorphine in accordance with the institutional guidelines. Animal experiments was approved by the Norwegian National Animal Research Committee (FDU 7040).
Cardiomyocytes were isolated based on a similar protocol as recently described ([Ackers-Johnson et al., 2016]). Mice were anesthetized and mask ventilated with a combination of 3% isoflurane and 97% O2. Deep surgical anesthesia was confirmed by abolished pain reflexes. […] Then 7 ml of buffer A (in mM: HEPES 25, NaCl 130, KCl 5.4, NaH2PO4 0.4, MgCl2 0.5, D-glucose 22, pH 7.4) with 5 mM EDTA was injected into the right ventricle. Thereafter, the aorta was clamped and the heart was excised. 10 ml of the buffer solution and thereafter 3 ml of the buffer solution without EDTA were injected into the left ventricle over 2–5 min. Then preheated solution A containing 0.8 mg/ml collagenase II was injected into the left ventricle over ∼20 min. The atria and right ventricle were removed, and the cardiomyocytes were isolated according to the same procedure as described for the Langendorff-based isolation of rat cardiomyocytes (described further below).
Isolated cardiomyocytes were loaded for 10 min with 5 μM fluo-4 AM ester (Molecular Probes, Eugene, OR, United States) at RT. The superfusate contained (mM): NaCl 140, HEPES 5, KCl 5.4, CaCl2 1, MgCl2 0.5, D-glucose 5.5 and NaH2PO4 0.4. The pH was adjusted to 7.4. […] Whole-cell Ca^2+ transients were recorded in field stimulated cardiomyocytes at 0.5 Hz (2.5 ms bipolar pulses) and 37°C with Cairn Research Optoscan Monochromator (excitation 485 nm, emission 515 nm long pass) (Cairn Research Ltd., United Kingdom). Regular Ca^2+ transients were recorded for at least 3 min per cell, before the field stimulation was stopped and 10 mM caffeine was added. Background fluorescence was recorded for each cell. Ca^2+ transients amplitude and SR Ca^2+ load was calculated as maximal fluorescence (F) divided on resting fluorescence (F0) on field stimulated and caffeine evoked Ca^2+ transients, respectively (See Figure 4I for illustration of protocol details). […] The NCX rate constant was calculated as: 1/τcaff ([Díaz et al., 1997]), as the non SERCA2, non-NCX mediated Ca^2+ removal was considered negligible.

NCX1 = assay: NCX activity (NCX rate constant, 1/τcaff) in isolated adult cardiomyocytes; format: cell-based, mouse; conditions: 1 μM, vs TAT-tagged scrambled control
Procedure: as §1, with “Animal experiments was approved by the Norwegian National Animal Research Committee (FDU 7040).” left out
Isolated cardiomyocytes were loaded for 10 min with 5 μM fluo-4 AM ester (Molecular Probes, Eugene, OR, United States) at RT. […] Whole-cell Ca^2+ transients were recorded in field stimulated cardiomyocytes at 0.5 Hz (2.5 ms bipolar pulses) and 37°C with Cairn Research Optoscan Monochromator (excitation 485 nm, emission 515 nm long pass) (Cairn Research Ltd., United Kingdom). Regular Ca^2+ transients were recorded for at least 3 min per cell, before the field stimulation was stopped and 10 mM caffeine was added. Background fluorescence was recorded for each cell. […] The NCX rate constant was calculated as: 1/τcaff ([Díaz et al., 1997]), as the non SERCA2, non-NCX mediated Ca^2+ removal was considered negligible.

mini-OPT = target: T2, mini-OPT; assay: peptide or protein array; peptides spot-synthesised on cellulose membranes, blocked in 1% casein, overlaid with 5 uM biotinylated pSer68-PLM peptide in 1% casein overnight at 4°C; detected with anti-biotin-HRP; conditions: both partners purified
T2 construct: residues 3-18 of OPT; source: synthetic peptide, spot-synthesised on cellulose membrane
T2 peptide: PYKEIEQLIELANYQV

[3] = target: T3, OPT with three amino acids deleted at its N-terminus; assay: as above; conditions: both partners purified
T3 construct: source: synthetic peptide, spot-synthesised on cellulose membrane
T3 peptide: YKEIEQLIELANYQVLS

[4] = target: T4, OPT with two amino acids deleted at its C-terminus; assay: as above; conditions: both partners purified
T4 construct: C-terminus'; source: synthetic peptide, spot-synthesised on cellulose membrane
T4 peptide: YHPYKEIEQLIELANYQV

biotin-ahx-pSer68-PLMcyt [5] = target: B1; assay: SPR; conditions: both partners purified

**Q.** For “E6G: E6G substitution of mini-OPT on the peptide array; negative control in pull down (PYKEIGQLIELANYQV)”, which “pSer68-PLM binding on peptide array” value (pSer68-PLMcyt) is on record?
**A.** abolished pSer68-PLM binding

**Q.** Which Kd (biotin-ahx-pSer68-PLMcyt [1]) does the source give for HIS-TF-NCX1cyt (domain or fragment) here?
**A.** 4.3 nM

**Q.** What about the koff (biotin-ahx-pSer68-PLMcyt [1]) of the same molecule?
**A.** 0.0011 s⁻¹

**Q.** What about the kon (biotin-ahx-pSer68-PLMcyt [1]) of the same molecule?
**A.** 380000 M⁻¹ s⁻¹

**Q.** What about the Kd (biotin-ahx-PLMcyt) of the same molecule?
**A.** 4.1 nM

**Q.** And the koff (biotin-ahx-PLMcyt)?
**A.** 0.004 s⁻¹

**Q.** And the kon (biotin-ahx-PLMcyt)?
**A.** 1.1e+06 M⁻¹ s⁻¹

**Q.** With “NOPT-TAT: NOPT made cell permeable by addition of a TAT tag to its C-terminus ([NMePro]YKEIEQLIELANYQVRKKRRQRRR)” as the molecule, how does the “Ca2+ transient amplitude” value ([2]; HF cardiomyocytes) read?
**A.** did not change

**Q.** And the “sarcoplasmic reticulum (SR) Ca2+ load” value ([2]; HF cardiomyocytes)?
**A.** did not change

**Q.** And the “Ca2+ transient amplitude” value ([2]; SHAM cardiomyocytes)?
**A.** did not change

**Q.** What about the “sarcoplasmic reticulum (SR) Ca2+ load” value ([2]; SHAM cardiomyocytes) of the same molecule?
**A.** did not change

**Q.** What about the “increase of NCX1 activity (NCX1 rate constant)” value (NCX1; cardiomyocytes from SHAM-operated mice, 10–13 cells from three mice) of the same molecule?
**A.** approximately 40%

**Q.** What about the “increase of NCX1 activity (NCX1 rate constant)” value (NCX1; cardiomyocytes from aorta banded HF mice, 6–7 cells from three mice) of the same molecule?
**A.** approximately 60%

**Q.** With PYKEIEQLIELANYQV [mini-OPT] as the molecule, how does the “pSer68-PLM binding on peptide array” value (pSer68-PLMcyt) read?
**A.** minimum sequence that was required to bind pSer68-PLMcyt

**Q.** Which “pSer68-PLM binding on peptide array” value (pSer68-PLMcyt) does the source give for “Y14A: Y14A substitution of mini-OPT on the peptide array; negative control in pull down (PYKEIEQLIELANAQV)” here?
**A.** abolished pSer68-PLM binding

**Q.** Does B1 bind (mini-OPT)?
**A.** binds

**Q.** Does B1 bind [3]?
**A.** binds

**Q.** Does B1 bind [4]?
**A.** binds

B2: NOPT-TAT (peptide)
peptide: [NMePro]YKEIEQLIELANYQVRKKRRQRRR
notes: also called TAT-conjugated NOPT; cell-permeable NOPT; source: synthetic peptide (Genscript, >80% purity)
**Q.** Which Kd (biotin-ahx-pSer68-PLMcyt [5]) does the source give for B2 here?
**A.** 129 nM
